Numbering of substitutions follows the chain as printed.
T1: human gamma (γ) common chain expressed on CHO cells (human, UniProt P31785 23-369)
T1 construct: whole, on cells; Control protein; also called human IL-2R-γ common subunit; human γ-common
T1 sequence (looked up): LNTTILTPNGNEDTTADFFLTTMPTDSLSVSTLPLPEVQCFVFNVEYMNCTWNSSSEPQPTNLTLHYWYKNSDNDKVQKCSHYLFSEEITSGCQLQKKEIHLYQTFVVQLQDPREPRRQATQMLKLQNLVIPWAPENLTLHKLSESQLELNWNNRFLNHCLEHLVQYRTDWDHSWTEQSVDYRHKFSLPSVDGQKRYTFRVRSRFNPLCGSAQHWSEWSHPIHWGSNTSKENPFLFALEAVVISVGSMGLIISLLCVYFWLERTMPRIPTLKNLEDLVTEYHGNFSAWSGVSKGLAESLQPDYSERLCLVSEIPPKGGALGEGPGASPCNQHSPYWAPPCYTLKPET

T2: human IL-2Rβ (human, UniProt P14784 27-239)
T2 sequence (looked up): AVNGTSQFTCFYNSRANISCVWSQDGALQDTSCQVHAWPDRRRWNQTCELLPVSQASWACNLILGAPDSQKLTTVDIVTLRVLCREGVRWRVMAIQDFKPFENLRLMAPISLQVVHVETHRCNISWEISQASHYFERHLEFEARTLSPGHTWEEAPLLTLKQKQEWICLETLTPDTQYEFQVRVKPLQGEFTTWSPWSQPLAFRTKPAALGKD

B1: AbI (antibody, IgG1, V domains shown)
VH: QVQLQESGPGLVKPSETLSLTCAVSGYSISSGYYWGWIRQPPGKGLEWIGSISHTGNTYYNPPLKSRVTISVDTSKNQFSLKLSSVTAADTAVYYCARGGGISRPEYWGQGTLVTVSS
VL: SSELTQDPAVSVALGQTVRITCQGDSLRTYYASWYQQKPGQAPVLVIYGKHKRPSGIPDRFSGSSSGNTASLTITGAQAEDEADYYCIARSNKGNPHVLFGGGTQLTVL
notes: As for AbA: IgG1/lambda, CDR3 graft, residue limits derived; also called VHP/VL24
B2: AbK (antibody, IgG1, V domains shown)
VH: B1 VH with G99F, G100M, I102F, S103G
VL: B1 VL with I88V, A89S, S91A, N92V, K93V
notes: As for AbA: IgG1/lambda, CDR3 graft, residue limits derived; also called VH3/VL3
B3: AbE (antibody, IgG1, V domains shown)
VH: B1 VH
VL: B1 VL with I88M, N92R
notes: As for AbA: IgG1/lambda, CDR3 graft, residue limits derived; also called VHP/VL14
B4: AbF (antibody, IgG1, V domains shown)
VH: B1 VH
VL: B1 VL with I88S, A89T, N92R
notes: As for AbA: IgG1/lambda, CDR3 graft, residue limits derived; also called VHP/VL17
B5: AbD (antibody, IgG1, V domains shown)
VH: B1 VH
VL: B1 VL with I88V, A89T, S91N, N92R, K93Y
notes: As for AbA: IgG1/lambda, CDR3 graft, residue limits derived; also called VHP/VL13
B6: AbH (antibody, IgG1, V domains shown)
VH: B1 VH
VL: B1 VL with I88V, S91A, N92V, K93R
notes: As for AbA: IgG1/lambda, CDR3 graft, residue limits derived; also called VHP/VL19
B7: AbL (antibody, IgG1, V domains shown)
VH: B1 VH with G99F, G100M, I102F, S103G
VL: B1 VL with I88V, A89T, S91N, N92R, K93Y
notes: As for AbA: IgG1/lambda, CDR3 graft, residue limits derived; also called VH3/VL13
B8: AbM (antibody, IgG1, V domains shown)
VH: B1 VH with G99F, G100F, I102F, S103G
VL: B1 VL with I88V, A89T, S91N, N92R, K93Y
notes: As for AbA: IgG1/lambda, CDR3 graft, residue limits derived; also called VH6/VL13
B9: AbN (antibody, IgG1, V domains shown)
VH: B1 VH with G99F, G100F, I102F, S103G
VL: B1 VL
notes: As for AbA: IgG1/lambda, CDR3 graft, residue limits derived; also called VH6/VL24

The binders below were run against T1, human gamma (γ) common chain expressed … (assay: cell-based ELISA on CHO cells transiently expressing human gamma common chain; HRP anti-human IgG, A450).
Method: (§1) FIG. 6(a-l) depicts the binding of 21 anti-IL-21R IgGs to CHO cells transiently expressing human IL-21R (FIGS. 6a-c), rat IL-21R (FIGS. 6d-f), cynomolgus monkey IL-21R (FIGS. 6g-i), and human gamma common chain (FIGS. 6j-1). CHO cells were transiently transfected with IL-21R or the control gamma common chain, and binding was detected with HRP-conjugated anti-human IgG in a cell-based ELISA.
(§2) A subset of binding proteins was tested for binding to rat, cynomolgus monkey, human IL-21R, or human IL-2R-γ common subunit expressed transiently on the surfaces of CHO-PA-Dukx cells. Cells were transfected 48 hr prior to the assay. On the day of the assay, cells were washed gently 5× in PBS containing 0.9 mM CaCl₂ and 0.45 mM MgCl₂ (PBS/CaMg) on an automated plate washer (Titertek, Huntsville, Ala.), and blocked for 1 hr at RT in PBS/CaMg/5% nonfat dry milk. Conditioned media from transiently expressed anti-IL-21R IgGs were serially diluted in blocking buffer and added to the cells in the blocked plates for 1 hr at RT. Cells were washed 5× with PBS/CaMg and then incubated with horseradish peroxidase-conjugated anti-human IgG for 1 hr at RT. Cells were then washed 10× in PBS/CaMg and all of the wash buffer was removed. Cells were incubated with 100 μl TMB until the color reaction reached saturation, stopped with 100 μl of 0.18 M H₂SO₄, and read at A450 on a Perkin Elmer ENVISION™ plate reader.

Row | Binder | binding result
1 | B1 | no binding (tested: 13 nM)
2 | B2 | no binding (tested: 40 nM)

Each binder was assayed against T3, rat IL-21R expressed on cells (rat) (assay: cell-based ELISA on CHO cells transiently expressing rat IL-21R; HRP anti-human IgG, A450).
T3 construct: whole, on cells
Method: as §1, §2

Row | Binder | EC50 (read off the curve)
3 | B3 | ~0.8 nM
4 | B4 | ~0.7 nM
5 | B2 | ~1 nM

These binders were tested against murine IL-21R expressed on cells (murine, UniProt Q9JHX3 20-529) (assay: cell-based or functional assay).
Sequence of murine IL-21R expressed on cells (Q9JHX3 20-529 limits assumed): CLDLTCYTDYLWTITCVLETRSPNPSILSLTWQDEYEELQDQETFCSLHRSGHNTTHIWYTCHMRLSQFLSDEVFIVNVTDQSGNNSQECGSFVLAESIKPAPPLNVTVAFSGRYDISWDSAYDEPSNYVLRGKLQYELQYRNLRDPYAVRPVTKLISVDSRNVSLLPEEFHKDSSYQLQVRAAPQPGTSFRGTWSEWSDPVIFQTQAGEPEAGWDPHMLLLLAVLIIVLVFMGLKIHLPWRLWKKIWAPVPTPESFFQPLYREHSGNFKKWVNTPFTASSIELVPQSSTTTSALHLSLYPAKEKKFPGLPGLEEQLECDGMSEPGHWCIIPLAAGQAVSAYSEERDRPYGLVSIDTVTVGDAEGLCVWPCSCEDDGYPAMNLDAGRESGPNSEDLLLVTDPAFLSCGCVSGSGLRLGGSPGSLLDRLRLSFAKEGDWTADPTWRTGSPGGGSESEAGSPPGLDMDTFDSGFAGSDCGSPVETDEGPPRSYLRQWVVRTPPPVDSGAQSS

Row | Binder | Murine IL-21R-BaF3 Proliferation IC50
6 | B5 | 0.01 nM
7 | B3 | 0.04 nM
8 | B4 | 0.304 nM
9 | B6 | 0.327 nM
10 | B1 | 0.224 nM
11 | B2 | 0.079 nM
12 | B7 | 0.227 nM
13 | B8 | 0.125 nM
14 | B9 | 0.435 nM

Each binder was assayed against T4, human IL-21R expressed on cells (human, UniProt Q9HBE5 20-538) (assay: cell-based or functional assay).
T4 sequence (Q9HBE5 20-538 limits assumed): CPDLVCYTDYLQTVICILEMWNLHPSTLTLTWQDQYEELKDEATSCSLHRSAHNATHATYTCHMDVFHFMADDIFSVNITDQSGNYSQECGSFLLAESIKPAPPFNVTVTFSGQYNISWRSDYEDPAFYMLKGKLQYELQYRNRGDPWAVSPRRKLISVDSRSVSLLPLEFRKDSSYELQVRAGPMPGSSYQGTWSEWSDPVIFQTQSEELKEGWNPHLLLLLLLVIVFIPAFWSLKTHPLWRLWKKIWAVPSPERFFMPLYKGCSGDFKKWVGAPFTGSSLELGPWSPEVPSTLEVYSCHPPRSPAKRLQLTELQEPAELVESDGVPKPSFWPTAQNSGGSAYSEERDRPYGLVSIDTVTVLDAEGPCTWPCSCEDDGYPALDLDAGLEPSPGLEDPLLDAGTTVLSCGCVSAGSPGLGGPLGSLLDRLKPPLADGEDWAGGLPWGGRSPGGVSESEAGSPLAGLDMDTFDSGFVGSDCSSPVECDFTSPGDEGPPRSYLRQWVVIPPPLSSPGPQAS

Row | Binder | Human IL-21R-BaF3 Proliferation IC50 | Human IL-21R-TF1 Proliferation IC50
15 | B5 | 0.91 nM | 2.67 nM
16 | B3 | 0.56 nM | 2.28 nM
17 | B4 | 0.54 nM | 2.41 nM
18 | B6 | 0.94 nM | 3.64 nM
19 | B1 | 1 nM | 3.8 nM
20 | B2 | 0.98 nM | 4 nM
21 | B7 | 0.68 nM | 4.25 nM
22 | B8 | 1.08 nM | 4.22 nM
23 | B9 | 0.5 nM | 1.59 nM

What follows are binders tested against T4, human IL-21R expressed on cells (assay: cell-based ELISA on CHO cells transiently expressing human IL-21R; HRP anti-human IgG, A450).
Method: as §1, §2

Row | Binder | EC50 (read off the curve)
24 | B5 | ~0.9 nM
25 | B4 | ~0.5 nM
26 | B6 | ~0.4 nM
27 | B1 | ~0.9 nM
28 | B7 | ~1 nM

Each binder was assayed against T1, human gamma (γ) common chain expressed … (assay: cell ELISA, CHO cells).
Method: as §2

Row | Binder | A450 (13 nM Ab)
29 | B1 | 0.107 A450
30 | B2 | 0.108 A450
31 | B9 | 0.136 A450

These binders were tested against T5, cynomolgus monkey IL-21R expressed on cells (cynomolgus monkey, UniProt G7Q0S8 41-559) (assay: cell ELISA, CHO cells).
T5 construct: whole, on cells
Method: as §2

Row | Binder | A450 (13 nM Ab)
32 | B5 | 1.38 A450
33 | B3 | 1.42 A450
34 | B4 | 1.46 A450
35 | B6 | 1.32 A450
36 | B1 | 1.21 A450
37 | B2 | 1.34 A450
38 | B7 | 1.51 A450
39 | B8 | 1.45 A450
40 | B9 | 1.5 A450

Each binder was assayed against T4, human IL-21R expressed on cells (assay: cell ELISA, CHO cells).
Method: as §2

Row | Binder | A450 (13 nM Ab)
41 | B5 | 1.25 A450
42 | B3 | 1.26 A450
43 | B4 | 1.35 A450
44 | B6 | 1.35 A450
45 | B1 | 1.24 A450
46 | B2 | 1.36 A450
47 | B7 | 1.45 A450
48 | B8 | 1.2 A450
49 | B9 | 1.21 A450

What follows are binders tested against T3, rat IL-21R expressed on cells (assay: cell ELISA, CHO cells).
Method: as §2

Row | Binder | A450 (13 nM Ab)
50 | B5 | 0.874 A450
51 | B3 | 1.11 A450
52 | B4 | 1 A450
53 | B6 | 1.1 A450
54 | B1 | 1.09 A450
55 | B2 | 1.18 A450
56 | B7 | 1.26 A450
57 | B8 | 0.78 A450
58 | B9 | 0.702 A450

What follows are binders tested against T2, human IL-2Rβ (assay: SPR, Ab captured).
Method: (§3) The specificity of binding of a subset of transiently expressed anti-IL-21R binding proteins (here antibodies) was tested on a BIACORE™ 2000 surface plasmon resonance instrument. Anti-human-IgG, anti-murine immunoglobulin antibodies, and murine IL-21R-H/F were immobilized onto a research-grade carboxymethyl-dextran chip (CM5) using standard amine coupling. The sensor chip surface was activated with EDC/NHS for 7 min at a flow rate of 20 μl/min. The first flow cell was used as reference surface to correct for bulk refractive index, matrix effects, and nonspecific binding. […] Remaining activated groups were blocked with 1.0 M ethanolamine (pH 8.0). The molecular weights of the anti-human IgG and the anti-murine IgG were both 150 kD, and the molecular weight of the IL-21R monomer was 27 kD.
(§4) Conditioned media containing anti-IL-21R antibodies and antibody controls (murine anti-human IL-2Rβ and murine anti-human IL-4R(R&D Systems, Minneapolis, Minn.); human anti-human IL-13 (Wyeth, Cambridge, Mass.)) were diluted in HBS/EP buffer supplemented with 0.2% bovine serum and injected onto all four flow cells of the BIACORE™ chip, capturing 500-700 (RU) of antibody on the species-appropriate capture antibody. Following a 5 sec washing period, 50 nM solutions of a positive control protein (murine IL-21R-H/F), two human proteins related to IL-21R (human IL-2Rβ and human sIL-4R(R&D Systems)), or an unrelated His/FLAG-tagged protein (human IL-13-H/F) were injected over the captured antibodies on the chip. The association and dissociation phases were monitored for 120 and 180 sec, respectively, followed by two 5 μl injections of glycine (pH 1.5) to regenerate a fully active capturing surface. All binding experiments were done at 25° C. in HBS/EP buffer. Blank and buffer effects were subtracted for each sensorgram using double referencing.

Row | Binder | binding result
59 | B5 | no binding (tested: 50 nM)
60 | B3 | no binding (tested: 50 nM)
61 | B4 | no binding (tested: 50 nM)
62 | B6 | no binding (tested: 50 nM)
63 | B1 | no binding (tested: 50 nM)
64 | B2 | no binding (tested: 50 nM)
65 | B7 | no binding (tested: 50 nM)

What follows are binders tested against T6, human soluble IL-4R (human, UniProt P24394 26-232, limits assumed) (assay: SPR, Ab captured).
T6 construct: also called human sIL-4R
Method: as §3, §4

Row | Binder | binding result
66 | B5 | no binding (tested: 50 nM)
67 | B3 | no binding (tested: 50 nM)
68 | B4 | no binding (tested: 50 nM)
69 | B6 | no binding (tested: 50 nM)
70 | B1 | no binding (tested: 50 nM)
71 | B2 | no binding (tested: 50 nM)
72 | B7 | no binding (tested: 50 nM)

What follows are binders tested against T7, human IL-13-His/FLAG (human, UniProt P35225 35-146, limits assumed) (assay: SPR, Ab captured).
T7 construct: Unrelated His/FLAG-tagged control; also called human IL-13-H/F
Method: as §3, §4

T7 sequence (P35225 35-146 limits assumed): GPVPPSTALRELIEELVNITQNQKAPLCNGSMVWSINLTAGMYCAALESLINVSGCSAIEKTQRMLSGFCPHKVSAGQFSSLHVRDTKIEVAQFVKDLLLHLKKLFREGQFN

Row | Binder | binding result
73 | B5 | no binding (tested: 50 nM)
74 | B3 | no binding (tested: 50 nM)
75 | B4 | no binding (tested: 50 nM)
76 | B6 | no binding (tested: 50 nM)
77 | B1 | no binding (tested: 50 nM)
78 | B2 | no binding (tested: 50 nM)
79 | B7 | no binding (tested: 50 nM)

The binders below were run against T5, cynomolgus monkey IL-21R expressed on … (assay: cell-based ELISA on CHO cells transiently expressing cynomolgus monkey IL-21R; HRP anti-human IgG, A450).
Method: as §1, §2

Row | Binder | EC50 (read off the curve)
80 | B5 | ~2 nM
81 | B4 | ~0.5 nM
82 | B6 | ~0.5 nM
83 | B1 | ~0.4 nM
84 | B2 | ~2 nM
85 | B7 | ~0.9 nM
86 | B8 | ~3 nM

From patent publication US20120276102A1 (Pfizer, published 2012)
